For one molecule, ICAM-1 MFI on HRMC, 250 ng/mL rhTWEAK, mAb 0.1 µg/mL results are on record in US20220289857A1.

The experiment concerns the target human Fn14 (full length) on cells (human) (UniProt Q9NP84). Kind of experiment: cell-based or functional assay.

human Fn14 (full length) on cells (human), sequence (Q9NP84 28-129): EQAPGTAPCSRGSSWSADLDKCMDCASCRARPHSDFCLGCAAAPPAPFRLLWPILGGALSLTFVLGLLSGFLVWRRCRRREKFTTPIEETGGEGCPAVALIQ

B1: ITEM-4 commercial anti-Fn14 monoclonal antibody (antibody, from another filing, V domains shown)
VH: QVQLQQSGPELVKPGASVKMSCKASGYTFTDFIIAWVKQRTGQGLEWIGEIYPGTGRTYYSEKFRGKATLTADKSSNTAYMQLSSLTSVDSAVYFCARRTIYYDYDGDYWGQGTTLTVSS
VL: DIVMTQAAFSNPVTLGTSASISCRSSKSLLHSNGITYLYWYLQKPGQSPQLLIYQMSNLASGVPDRFSSSGSGTDFTLRISRVEAEDVGVYYCAHNLELPWTFGGGTKLELK
As for B1, the ICAM-1 MFI on HRMC, 250 ng/mL rhTWEAK, mAb 0.1 µg/mL stood at 9620 MFI.
